Assay results taken from patent US20250164487, “METHOD FOR […] ANALYTE USING POLYNUCLEOTIDE” (NATIONAL UNIVERSITY CORPORATION TOKYO UNIVERSITY OF …, published 2025).

Tests used:
[1] = molecular target: T1, SARS-CoV-2 spike protein receptor-binding domain (RBD) (SARS-CoV-2, UniProt P0DTC2 P0DTC2:319-541)
[2] = molecular target: BSA (UniProt P02769 P02769:25-607)
[3] = molecular target: T1, SARS-CoV-2 spike protein …; assay: […]; PBS pH 7.4, room temperature

Sequence of BSA (P02769 25-607, one chain of several): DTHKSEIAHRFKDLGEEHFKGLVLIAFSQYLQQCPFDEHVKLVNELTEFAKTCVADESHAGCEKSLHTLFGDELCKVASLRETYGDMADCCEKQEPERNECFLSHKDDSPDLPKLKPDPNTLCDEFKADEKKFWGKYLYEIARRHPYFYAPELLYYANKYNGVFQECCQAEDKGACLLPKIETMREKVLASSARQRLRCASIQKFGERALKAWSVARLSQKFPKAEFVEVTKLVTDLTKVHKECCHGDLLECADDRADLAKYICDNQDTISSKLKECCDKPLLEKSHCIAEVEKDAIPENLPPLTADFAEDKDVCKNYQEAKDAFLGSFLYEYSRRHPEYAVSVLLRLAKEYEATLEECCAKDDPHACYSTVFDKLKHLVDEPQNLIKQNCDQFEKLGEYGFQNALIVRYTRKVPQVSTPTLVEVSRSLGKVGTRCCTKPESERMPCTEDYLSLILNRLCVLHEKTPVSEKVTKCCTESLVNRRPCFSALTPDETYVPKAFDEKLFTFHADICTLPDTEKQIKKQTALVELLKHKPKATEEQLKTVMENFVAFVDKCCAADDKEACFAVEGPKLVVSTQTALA

Binder | binding result [1] | binding result [2] | Kd [3]
AGGGGCTGCTCGGGATTGCGGATATGGA (ssDNA) [RBD-45] | binds | – | –
GGGGCTGCTCGGGATTGCGGATATGG (ssDNA) [RBD-46] | – | no binding | 34.7 nM
